Biological target: Lucilia sericata larval excretions/secretions (ES), Batch B: proteinase activities within ES
Experiment: cell-based or functional assay

- residual activity of STI-treated ES against H-Leu-AMC without further inhibitor (FIG. 10A), compared with untreated ES (percent of untreated ES): 25.7
- residual activity of STI-treated ES against H-Leu-AMC, percentage of untreated ES (percent of untreated ES): 28.4
- residual activity of STI-treated ES against Tosyl-Gly-Pro-Arg-AMC-HCl, percentage of untreated ES (percent of untreated ES): 0.5
- residual activity of STI-treated ES against Z-Phe-Arg-AMC-HCl, percentage of untreated ES (percent of untreated ES): 1.8
Substance: soybean trypsin inhibitor (STI) immobilized on cross-linked 4% beaded agarose (from UniProt P01070 25-205)

Source: patent US20110280858A1
